Positions of bridges follow the written chain, without caps; N, C: chain ends. Non-standard residues stand in square brackets, D forms with d. NMeNle = CCCC[C@H](NC)C(=O)O; NMeA = CN[C@@H](C)C(=O)O
What was measured:
[1] = target: T1, hPDL1(19-239)-TVMV-His (recombinant human PD-L1-TVMV-His) (UniProt Q9NZQ7 19-239); assay: HTRF competition with biotinylated Compound No. 71
[2] = target: human PD-L1 on cells (human, UniProt Q9NZQ7 19-290); assay: cell binding assay, blocking of PD-1-Ig (PE) to LK35.2-hPD-L1 cells
Sequence of human PD-L1 on cells (Q9NZQ7 19-290): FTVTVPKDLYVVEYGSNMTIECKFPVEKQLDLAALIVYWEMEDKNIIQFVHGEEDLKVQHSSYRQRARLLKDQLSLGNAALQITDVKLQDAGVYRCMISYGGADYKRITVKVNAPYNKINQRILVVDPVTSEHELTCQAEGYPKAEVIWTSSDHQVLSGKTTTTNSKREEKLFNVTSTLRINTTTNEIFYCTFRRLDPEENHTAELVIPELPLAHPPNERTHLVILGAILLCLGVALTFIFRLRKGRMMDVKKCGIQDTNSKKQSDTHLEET

[3] = target: T1, hPDL1(19-239)-TVMV-His (recombinant …); assay: HTRF PD-1/PD-L1 binding inhibition

T1 sequence (Q9NZQ7 other isoform, or with tags, fused parts or gaps): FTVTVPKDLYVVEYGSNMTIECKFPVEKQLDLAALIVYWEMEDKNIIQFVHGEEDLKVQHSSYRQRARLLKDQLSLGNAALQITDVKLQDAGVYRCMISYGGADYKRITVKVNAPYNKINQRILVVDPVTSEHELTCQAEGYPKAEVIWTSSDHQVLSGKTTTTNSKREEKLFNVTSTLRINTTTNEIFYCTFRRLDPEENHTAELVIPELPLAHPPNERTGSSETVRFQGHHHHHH

B1: Compound No. 2 (peptide)
peptide: {CH2CO}-F[NMeA]NPHHSWRW[NMeNle][NMeNle]LCG-NH2
modifications: thioether N-14
SMILES: CCCC[C@H]1C(=O)N(C)[C@@H](CCCC)C(=O)N[C@@H](CC(C)C)C(=O)N[C@H](C(=O)NCC(N)=O)CSCC(=O)N[C@@H](Cc2ccccc2)C(=O)N(C)[C@@H](C)C(=O)N[C@@H](CC(N)=O)C(=O)N2CCC[C@H]2C(=O)N[C@@H](Cc2c[nH]cn2)C(=O)N[C@@H](Cc2c[nH]cn2)C(=O)N[C@@H](CO)C(=O)N[C@@H](Cc2c[nH]c3ccccc23)C(=O)N[C@@H](CCCNC(=N)N)C(=O)N[C@@H](Cc2c[nH]c3ccccc23)C(=O)N1C
For B1, the IC50 [1] was 584 nM, the IC50 [2] was 40 nM and the IC50 [3] was 14 nM.

B2: Compound No. 71 (peptide)
peptide: FFXGDVFYGWYLCG
HELM: PEPTIDE1{[O=C(C[*:3])[*:2]].F.[meF].[CCCC[C@@H](C(=O)[*:2])N(C)[*:1]].[Sar].D.V.[meF].Y.[Sar].W.Y.L.C.G.[am]}$PEPTIDE1,PEPTIDE1,1:R3-14:R3$$$V2.0
SMILES: CCCC[C@H]1C(=O)N(C)CC(=O)N[C@@H](CC(=O)O)C(=O)N[C@@H](C(C)C)C(=O)N(C)[C@@H](Cc2ccccc2)C(=O)N[C@@H](Cc2ccc(O)cc2)C(=O)N(C)CC(=O)N[C@@H](Cc2c[nH]c3ccccc23)C(=O)N[C@@H](Cc2ccc(O)cc2)C(=O)N[C@@H](CC(C)C)C(=O)N[C@H](C(=O)NCC(N)=O)CSCC(=O)N[C@@H](Cc2ccccc2)C(=O)N(C)[C@@H](Cc2ccccc2)C(=O)N1C
B2 was tested, and the IC50 [1] was 83 nM, the IC50 [2] was 1 nM and the IC50 [3] was 1 nM.

B3: Compound No. 99 (peptide)
peptide: {CH2CO}-FLIVIRDRVFRCG-NH2
modifications: thioether N-12
In the case of B3, the IC50 [1] is reported as 4310 nM, the IC50 [2] is reported as 133 nM and the IC50 [3] is reported as 90 nM.
